Test results taken from patent US20230189818A1, “RNA-BASED CONTROL OF BOTRYTIS” (priority 2021, published 2023).

Assays:
[1] = tested on: Botrytis cinerea isolate (B05.10); assay: Detached leaf assay (tomato leaflets, lesion size); assay type: in vivo; conditions: five days post inoculation, vs untreated inoculated control
Outline: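 Tomato (Brandywine) detached lateral leaflets were sprayed with treatment in 0.03% Silwet L-77 24 h before inoculation. Two 10 μL drops of 1×10^5 conidia/mL in 7% grape juice were applied per leaflet, which was then incubated at 23 °C, ~75% RH, 12/12 light. Lesion diameter was measured at 5 DPI against the untreated inoculated control, ten replicates.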

B. cinerea = assay: Open-air field trial on snap bean (Example 4.3, AUDPC of % disease severity); assay type: in vivo, Botrytis cinerea; conditions: Switch 525 g ai/ha, GS349 20 and 40, GS2280 10 and 40, GS2303 10, 20 and 40, GS2297 20 g ai/ha, FIG. 9
Description: RNAi compositions, each containing a dsRNA comprising a trigger sequence (GS349, GS2280, GS2303, or GS2297) described herein were evaluated for ability to control botrytis on snap bean in open-air filed trials. All test samples were formulated with RO water, propylene glycol, a linear alcohol ethoxylate, a lignosulfanate, sodium citrate dihydate, a polyacrylic acid polymer, two biocide compositions, anhydrous citric acid, and an antifoam, all of which are readily commercially available. Formulation samples were tank mixed with a standard adjuvant, the non-ionic surfactant, Activator 90 0.125%v/v. Compositions were tested at concentrations of 10, g ai/ha, 20 g ai/ha, and 40 g ai/ha. Positive controls were a chemical standard, Switch 525 g ai/ha and a biological standard, Double Nickel LC 9.4 I/ha, both of which were also tank mixed with Activator 90 0.125% v/v. As above, an untreated check was used as a negative control.
Compositions were applied to snap bean plants using a small plot sprayer delivering 50 gallons of water per acre. A total of three applications were used for each sample and positive control. Disease state was evaluated beginning 8 days after the first application and ending 37 days after the third and final application. Percent Disease Severity was assessed and AUDPC was calculated in the same manner as noted in Example 4.1.

Botrytis cinerea conidia = assay: In vitro liquid-based assay (fungal biomass, 96-well plates, Cytation 5); assay type: cell-based; conditions: co-incubated with conidia for three days, vs untreated control
Outline: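 Conidia (5000/mL stock) were co-incubated with dsRNA or control treatments in pH 6.0 minimal medium. Incubation ran 72 h at 23 °C, shaking at 120 rpm under continuous light. Fungal biomass was measured by brightfield imaging (8 slices per well, 2.5× lens) and expressed as average reduction versus control.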

Row | Molecule | Average % Reduction in Lesion Size ([1]; 30 ppm) [%] | Average % Reduction in Lesion Size ([1]; 50 ppm) [%] | Disease state compared to treatment with the chemical standard (AUDPC) (B. cinerea) | Average % Reduction in Biomass (Botrytis cinerea conidia; 25 ppm dsRNA) [%] | Average % Reduction in Biomass (Botrytis cinerea conidia; 150 ppm dsRNA) [%]
1 | GS2303: dsRNA trigger targeting B. cinerea Bcded1 (XM_001550339.2); trigger SEQ ID NO 24, RNA 36, reverse complement 48 (nucleic acid, listed as Botrytis cinerea) sense: GGGCUAUAUAAGCUUUCAUCUAGGUUUUCCAAGAAACGCAUUACGAUAGACAUGUUCUCCAAAAAUCUUACUGGUCCUGCUUUCAGCAUUUCCAUGGAUCAUGAAGUCCUCCACUAUGGAAGAUUUGCAAAAUAUUUUCGACAUUGCAUUUUGCUGCAUUUCGCAUUUCUAGAUAGAAAAAAAGUGGGAUUCAUAUUCUCGAUAUUUUCUUCGUUGUCUUUUAUUCACAAGACACAUGGCAAGGGAGGAUACCAUUUGAGAGCUUGAAUUGAAGGCUUUCCUCUUACUUUUUUUAUUUUUCACAUCAUCUACGAGUGGGCGUCUUUUACGAUCAAAUCGAUAUACGACAGUGGCACAAAAUAGAAUAGGCAUUUCUCUUCUUAAAAAAGAUUUAAGGGAAGAGUUGGUGCUUGUUCUCUAUAACGCUGAUGGCAUUCGGAAGUGCUCCUGUCCAUUCAGGCUGAGACUGAGACCCAAAAUGUUGGCAGGUACGGCAGAAAGAAGUCUGCUUCAUAUGAUUGAUGGAGGAAGAAAGAAAUAUGGAAUGCGAUGGAUGAGUAAUUACUUUAAAUGAAUAUGAAAA antisense: UUUUCAUAUUCAUUUAAAGUAAUUACUCAUCCAUCGCAUUCCAUAUUUCUUUCUUCCUCCAUCAAUCAUAUGAAGCAGACUUCUUUCUGCCGUACCUGCCAACAUUUUGGGUCUCAGUCUCAGCCUGAAUGGACAGGAGCACUUCCGAAUGCCAUCAGCGUUAUAGAGAACAAGCACCAACUCUUCCCUUAAAUCUUUUUUAAGAAGAGAAAUGCCUAUUCUAUUUUGUGCCACUGUCGUAUAUCGAUUUGAUCGUAAAAGACGCCCACUCGUAGAUGAUGUGAAAAAUAAAAAAAGUAAGAGGAAAGCCUUCAAUUCAAGCUCUCAAAUGGUAUCCUCCCUUGCCAUGUGUCUUGUGAAUAAAAGACAACGAAGAAAAUAUCGAGAAUAUGAAUCCCACUUUUUUUCUAUCUAGAAAUGCGAAAUGCAGCAAAAUGCAAUGUCGAAAAUAUUUUGCAAAUCUUCCAUAGUGGAGGACUUCAUGAUCCAUGGAAAUGCUGAAAGCAGGACCAGUAAGAUUUUUGGAGAACAUGUCUAUCGUAAUGCGUUUCUUGGAAAACCUAGAUGAAAGCUUAUAUAGCCC | 43.06 | 26.55 | no significant difference | 13 | 26
2 | GS2297: dsRNA trigger targeting B. cinerea Bcrpb5 (XM_024693733.1); trigger SEQ ID NO 23, RNA 35, reverse complement 47 (nucleic acid, listed as Botrytis cinerea) sense: UGCACCAUCAGGUCCCGCUCAAAAGAUUAUUCCCGCUGUCGCAUCCGAGACAAGAAUCGAGACCUUCGUCGAGCAAGAUUUACUUGUCAAUAUUACACAUCAUGAAUUGGUUCCCAAGCAUGUUUUGUUAAGUAGAGAAGAGAGGGCCAAGUUGUUGUCAAGAUAUAGAUUGAAGGAUACUCAACUCCCACGUAUUCAGGCUGCGGAUCCAGUUGCAAAAUAUUUGGGAUUGAGAAGAGGGCAGGUCGUUAAGAUUAUCAGAAAGUCGGAAACUGCUGGUCGUUAUGCCAGUUACAGAUUGUGCGUAUAAUGGAGCUGGAGGGUAGAUGAUUUGGUGUUAAUAACUAGGGAGUUUCUUGGGAAAAAUUUGCAUAUUUGGGGAAGGCGUAAUAGGCUGGAAGAAAGACUGAGGAUGAGAUUGUCUAUUUUGGCUUUCCAGGAAGCAAUACUUUGAGACAUGAAAUUUGAUAUUAAAUUUCUUGUUCUGUAUAUUUCUGAUAGUUUCAGAGCUUUUCAAUAAGAUCUAUUCUACAGUUUUAAGAAUCCAGACUCACCCUUUGAGAAGCUCAUACAAAGUUCCUUCCUA antisense: UAGGAAGGAACUUUGUAUGAGCUUCUCAAAGGGUGAGUCUGGAUUCUUAAAACUGUAGAAUAGAUCUUAUUGAAAAGCUCUGAAACUAUCAGAAAUAUACAGAACAAGAAAUUUAAUAUCAAAUUUCAUGUCUCAAAGUAUUGCUUCCUGGAAAGCCAAAAUAGACAAUCUCAUCCUCAGUCUUUCUUCCAGCCUAUUACGCCUUCCCCAAAUAUGCAAAUUUUUCCCAAGAAACUCCCUAGUUAUUAACACCAAAUCAUCUACCCUCCAGCUCCAUUAUACGCACAAUCUGUAACUGGCAUAACGACCAGCAGUUUCCGACUUUCUGAUAAUCUUAACGACCUGCCCUCUUCUCAAUCCCAAAUAUUUUGCAACUGGAUCCGCAGCCUGAAUACGUGGGAGUUGAGUAUCCUUCAAUCUAUAUCUUGACAACAACUUGGCCCUCUCUUCUCUACUUAACAAAACAUGCUUGGGAACCAAUUCAUGAUGUGUAAUAUUGACAAGUAAAUCUUGCUCGACGAAGGUCUCGAUUCUUGUCUCGGAUGCGACAGCGGGAAUAAUCUUUUGAGCGGGACCUGAUGGUGCA | 27.63 | 24.35 | no significant difference | 11 | 24
